Results published in patent publication US20090149389A1 (PURDUE RESEARCH FOUNDATION, published 2009).

How the values were obtained:
Assay in all cases: cell-based or functional assay
EphA2 (h) = target: T1, EphA2 (h) (human (h), UniProt P29317 591-976, limits assumed)
T1 sequence (looked up): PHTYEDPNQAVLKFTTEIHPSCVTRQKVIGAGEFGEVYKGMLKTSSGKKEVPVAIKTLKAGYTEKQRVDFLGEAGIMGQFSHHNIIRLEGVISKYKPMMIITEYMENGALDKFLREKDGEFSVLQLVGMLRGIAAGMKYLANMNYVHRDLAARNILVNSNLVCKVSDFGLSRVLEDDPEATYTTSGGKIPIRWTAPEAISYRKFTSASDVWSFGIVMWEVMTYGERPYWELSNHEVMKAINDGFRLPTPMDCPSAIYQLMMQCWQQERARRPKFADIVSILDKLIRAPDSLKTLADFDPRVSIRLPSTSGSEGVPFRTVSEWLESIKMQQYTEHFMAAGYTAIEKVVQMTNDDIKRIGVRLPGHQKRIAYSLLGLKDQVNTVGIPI

IGF-IR (h) = IGF-IR (h) (human (h), UniProt P08069 959-1367, limits assumed)
Aurora-A (h) = target: T2, Aurora-A (h) (human (h), UniProt O14965 1-403)
T2 sequence (looked up): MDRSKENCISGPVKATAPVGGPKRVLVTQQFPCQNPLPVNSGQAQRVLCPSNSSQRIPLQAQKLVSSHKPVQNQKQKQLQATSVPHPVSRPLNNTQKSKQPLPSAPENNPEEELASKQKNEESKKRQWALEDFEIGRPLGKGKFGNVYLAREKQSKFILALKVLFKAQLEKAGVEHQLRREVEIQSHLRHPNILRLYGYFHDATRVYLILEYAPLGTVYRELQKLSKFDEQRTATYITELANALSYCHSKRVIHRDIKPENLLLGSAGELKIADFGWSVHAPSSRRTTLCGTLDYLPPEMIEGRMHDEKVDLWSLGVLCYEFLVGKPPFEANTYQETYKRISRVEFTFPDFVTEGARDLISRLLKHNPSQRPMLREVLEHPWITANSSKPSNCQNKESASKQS

PKA (h) = PKA (h) (human (h), UniProt P17612 1-351)
L1MK1 (h) = L1MK1 (h) (human (h), UniProt P53667 285-638, limits assumed)
PDGFRβ (h) = PDGFRβ (h) (human (h), UniProt P09619 558-1106, limits assumed)
MLCK (h) = MLCK (h) (human (h))
CKIB (h) = CKIB (h) (human (h))
cKit (h) = cKit (h) (human (h), UniProt P10721 544-976, limits assumed)
JAK3 (h) = JAK3 (h) (human (h), UniProt P52333 781-1124, limits assumed)
PKG1β (h) = target: T3, PKG1β (h) (human (h), UniProt Q13976-2 1-686)
T3 sequence (looked up): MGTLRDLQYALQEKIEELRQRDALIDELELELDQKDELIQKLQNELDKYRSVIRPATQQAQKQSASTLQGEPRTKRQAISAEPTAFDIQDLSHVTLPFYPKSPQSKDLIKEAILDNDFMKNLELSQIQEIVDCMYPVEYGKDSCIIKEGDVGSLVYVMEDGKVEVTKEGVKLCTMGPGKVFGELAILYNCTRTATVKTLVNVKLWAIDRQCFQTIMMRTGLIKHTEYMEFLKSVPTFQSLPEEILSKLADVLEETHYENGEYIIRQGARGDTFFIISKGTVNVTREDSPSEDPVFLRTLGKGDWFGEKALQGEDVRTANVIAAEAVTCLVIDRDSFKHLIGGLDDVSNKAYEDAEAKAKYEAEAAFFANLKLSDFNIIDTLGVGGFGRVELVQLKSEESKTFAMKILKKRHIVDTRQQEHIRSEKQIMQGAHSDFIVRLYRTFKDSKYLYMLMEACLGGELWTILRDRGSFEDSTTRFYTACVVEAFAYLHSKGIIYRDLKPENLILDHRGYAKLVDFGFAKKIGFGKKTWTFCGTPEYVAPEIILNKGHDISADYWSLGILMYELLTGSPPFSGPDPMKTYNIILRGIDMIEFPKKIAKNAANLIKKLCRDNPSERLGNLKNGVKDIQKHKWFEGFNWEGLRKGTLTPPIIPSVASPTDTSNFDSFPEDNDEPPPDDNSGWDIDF

CHK1 (h) = target: T4, CHK1 (h) (human (h), UniProt O14757 1-476)
T4 sequence (looked up): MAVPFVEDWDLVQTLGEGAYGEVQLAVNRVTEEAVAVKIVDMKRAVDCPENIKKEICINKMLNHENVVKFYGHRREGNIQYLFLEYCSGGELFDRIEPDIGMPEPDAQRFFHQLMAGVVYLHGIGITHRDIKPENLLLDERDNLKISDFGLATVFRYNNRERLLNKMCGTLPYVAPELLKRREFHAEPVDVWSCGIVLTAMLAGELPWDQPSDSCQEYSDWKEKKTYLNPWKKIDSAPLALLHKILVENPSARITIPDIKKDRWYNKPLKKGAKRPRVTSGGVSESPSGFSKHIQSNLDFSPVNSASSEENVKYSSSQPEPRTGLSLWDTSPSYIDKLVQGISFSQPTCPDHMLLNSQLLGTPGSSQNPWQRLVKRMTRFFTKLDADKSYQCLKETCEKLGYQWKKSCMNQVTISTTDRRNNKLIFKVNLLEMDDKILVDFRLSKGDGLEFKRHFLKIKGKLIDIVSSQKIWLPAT

L1MK1 (h), sequence (P53667 285-638 limits assumed): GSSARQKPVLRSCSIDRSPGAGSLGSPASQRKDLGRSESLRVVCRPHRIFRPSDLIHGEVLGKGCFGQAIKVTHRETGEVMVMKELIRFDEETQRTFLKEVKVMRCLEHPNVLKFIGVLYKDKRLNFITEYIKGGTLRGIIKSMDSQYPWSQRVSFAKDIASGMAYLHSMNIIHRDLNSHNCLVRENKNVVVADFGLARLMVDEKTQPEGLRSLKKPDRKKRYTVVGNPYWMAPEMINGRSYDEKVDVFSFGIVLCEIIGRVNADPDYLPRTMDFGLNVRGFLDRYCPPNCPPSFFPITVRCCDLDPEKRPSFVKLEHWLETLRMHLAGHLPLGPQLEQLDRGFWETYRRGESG
JAK3 (h), sequence (P52333 781-1124 limits assumed): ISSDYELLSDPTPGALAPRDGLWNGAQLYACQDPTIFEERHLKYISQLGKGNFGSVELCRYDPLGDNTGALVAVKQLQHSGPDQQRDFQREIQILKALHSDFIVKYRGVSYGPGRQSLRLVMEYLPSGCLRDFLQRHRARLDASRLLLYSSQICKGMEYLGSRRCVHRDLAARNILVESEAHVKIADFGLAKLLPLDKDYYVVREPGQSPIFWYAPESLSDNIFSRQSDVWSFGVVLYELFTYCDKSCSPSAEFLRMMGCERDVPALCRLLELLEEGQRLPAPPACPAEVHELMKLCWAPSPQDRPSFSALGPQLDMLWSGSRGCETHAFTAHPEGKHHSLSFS
cKit (h), sequence (P10721 544-976 limits assumed): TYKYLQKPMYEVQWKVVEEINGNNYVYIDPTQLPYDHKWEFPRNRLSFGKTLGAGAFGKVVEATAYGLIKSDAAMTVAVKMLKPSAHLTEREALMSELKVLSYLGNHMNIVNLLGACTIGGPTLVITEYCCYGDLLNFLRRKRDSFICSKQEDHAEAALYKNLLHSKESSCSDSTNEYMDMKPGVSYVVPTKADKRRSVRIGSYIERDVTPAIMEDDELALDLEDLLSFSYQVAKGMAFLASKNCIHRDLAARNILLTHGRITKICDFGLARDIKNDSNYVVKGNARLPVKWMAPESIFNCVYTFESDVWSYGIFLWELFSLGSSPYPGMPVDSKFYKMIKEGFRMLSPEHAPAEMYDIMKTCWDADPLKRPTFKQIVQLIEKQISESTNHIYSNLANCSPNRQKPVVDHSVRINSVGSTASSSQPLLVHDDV
PDGFRβ (h), sequence (P09619 558-1106 limits assumed): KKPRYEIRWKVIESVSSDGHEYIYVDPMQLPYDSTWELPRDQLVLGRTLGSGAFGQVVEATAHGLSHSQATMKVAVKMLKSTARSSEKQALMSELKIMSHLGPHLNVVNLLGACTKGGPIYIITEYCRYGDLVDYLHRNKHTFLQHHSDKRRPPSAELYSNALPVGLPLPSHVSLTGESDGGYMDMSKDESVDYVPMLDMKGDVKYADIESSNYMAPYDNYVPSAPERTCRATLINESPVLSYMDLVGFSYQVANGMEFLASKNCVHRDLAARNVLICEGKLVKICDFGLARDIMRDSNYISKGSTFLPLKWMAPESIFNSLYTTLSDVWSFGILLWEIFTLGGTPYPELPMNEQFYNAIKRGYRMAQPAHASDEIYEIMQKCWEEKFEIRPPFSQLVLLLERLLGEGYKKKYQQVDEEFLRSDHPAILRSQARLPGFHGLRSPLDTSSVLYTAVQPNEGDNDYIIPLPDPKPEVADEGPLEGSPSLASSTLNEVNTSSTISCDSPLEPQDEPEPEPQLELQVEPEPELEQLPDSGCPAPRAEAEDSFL
IGF-IR (h), sequence (P08069 959-1367 limits assumed): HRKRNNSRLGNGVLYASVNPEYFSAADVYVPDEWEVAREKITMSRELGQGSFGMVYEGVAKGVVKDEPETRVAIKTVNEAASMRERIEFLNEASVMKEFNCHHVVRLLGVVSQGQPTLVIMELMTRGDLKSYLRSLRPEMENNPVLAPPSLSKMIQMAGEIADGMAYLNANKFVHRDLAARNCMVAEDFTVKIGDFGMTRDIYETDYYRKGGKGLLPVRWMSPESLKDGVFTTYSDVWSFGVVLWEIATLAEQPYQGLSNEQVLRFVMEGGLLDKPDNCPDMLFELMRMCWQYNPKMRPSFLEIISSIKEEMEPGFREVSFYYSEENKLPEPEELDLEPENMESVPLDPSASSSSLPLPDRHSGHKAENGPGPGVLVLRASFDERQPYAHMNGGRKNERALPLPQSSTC

FAKLAARLYRKALARQLGVAA
Profile-1 @ = 100 µm (kinase profiler assay) (EphA2 (h)): 32
Profile-1 @ = 100 µm (kinase profiler assay) (IGF-IR (h)): 69
Profile-1 @ = 100 µm (kinase profiler assay) (Aurora-A (h)): 65
Profile-1 @ = 100 µm (kinase profiler assay) (PKA (h)): 76
Profile-1 @ = 100 µm (kinase profiler assay) (L1MK1 (h)): 92
Profile-1 @ = 100 µm (kinase profiler assay) (PDGFRβ (h)): 92
Profile-1 @ = 100 µm (kinase profiler assay) (MLCK (h)): 1
Profile-1 @ = 100 µm (kinase profiler assay) (CKIB (h)): 99
Profile-1 @ = 100 µm (kinase profiler assay) (cKit (h)): 42
Profile-1 @ = 100 µm (kinase profiler assay) (JAK3 (h)): 102
Profile-1 @ = 100 µm (kinase profiler assay) (PKG1β (h)): 15
Profile-1 @ = 100 µm (kinase profiler assay) (CHK1 (h)): 54
